This is an account of results in paper PMC12501005.

The target of data set [1] is T1, AflR-DBD (15-79) (Aspergillus flavus, UniProt P41765 15-79).
T1 sequence: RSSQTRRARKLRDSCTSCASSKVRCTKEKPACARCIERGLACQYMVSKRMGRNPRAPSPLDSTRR
Put plainly: EMSA.

The next data set concerns the target T2, AflR 15-57 (Aspergillus flavus, UniProt P41765 15-57).
T2 chain: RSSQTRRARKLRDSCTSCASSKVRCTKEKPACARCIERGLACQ
Put plainly: EMSA. A general note: A gel shift assay detects complexes by their altered migration in electrophoresis.

The next data set addresses T3, AflR 28-57 (Aspergillus flavus, UniProt P41765 28-57).
T3 chain: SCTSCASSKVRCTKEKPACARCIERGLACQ
The experiment in a line: EMSA.

The target of data set [2] is T1, AflR-DBD (15-79). Put plainly: FCS.
The next data set has as its target T4, AflR 8-98 (Aspergillus flavus, UniProt P41765 8-98).
T4 sequence: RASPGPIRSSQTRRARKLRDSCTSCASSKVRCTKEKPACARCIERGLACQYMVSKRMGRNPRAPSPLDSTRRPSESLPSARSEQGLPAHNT
The experiment in a line: FCS.

The next data set addresses T5, AflR 15-69 (Aspergillus flavus, UniProt P41765 15-69).
T5 sequence: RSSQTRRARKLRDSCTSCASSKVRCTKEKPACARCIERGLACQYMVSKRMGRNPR
The experiment in a line: FCS.

The target in a further data set is T6, AflR 26-79 (Aspergillus flavus, UniProt P41765 26-79).
T6 sequence: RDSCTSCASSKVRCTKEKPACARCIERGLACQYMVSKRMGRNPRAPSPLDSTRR
The experiment in a line: FCS.

B1: norA inverted repeat (GCG to CCG) (dsDNA)
DNA 1: ACCGGGCTTTCGGAAACCGATCAGCTTGT
DNA 2: ACAAGCTGATCGGTTTCCGAAAGCCCGGT
Take B1: the binding result in the data set with AflR-DBD (15-79) [1] is “binds”.

B2: norA (dsDNA)
DNA 1: ACCGGGCTTTCGGAAAGCGATCAGCTTGT
DNA 2: ACAAGCTGATCGCTTTCCGAAAGCCCGGT
Take B2: the binding result with AflR 15-57 and in the data set with AflR 28-57 was “no binding” in each case.

B3: ver1 (dsDNA)
DNA 1: TCAGATATTTCGGTCTCCGAGGAAAGAT
DNA 2: ATCTTTCCTCGGAGACCGAAATATCTGA
As for B3, the Kd (commonly the concentration at which binding is half-saturated) in the data set with AflR-DBD (15-79) [2] came out at 401 ± 54.5 nM; with AflR 8-98, 409 ± 137 nM; with AflR 15-69, 1510 ± 250 nM; with AflR 26-79, 4020 ± 594 nM. The binding result with AflR 15-57 and with AflR 28-57 was “no binding” throughout.

B4: vbs (dsDNA)
DNA 1: ACCGACTCTCGGACAGCGAGGCAGACCG
DNA 2: CGGTCTGCCTCGCTGTCCGAGAGTCGGT
B4: the binding result in the data set with AflR 15-57 and with AflR 28-57 was “no binding” in each case.

B5: vbs inverted repeat (GCG to CCG) (dsDNA)
DNA 1: ACCGACTCTCGGACACCGAGGCAGACCG
DNA 2: CGGTCTGCCTCGGTGTCCGAGAGTCGGT
In the case of B5, in the data set with AflR-DBD (15-79) [1], the binding result was “binds”.
